Source: publication PMC4382182, “Characterization of Phospho-(Tyrosine)-Mimetic Calmodulin Mutants” (PLoS ONE, 2015)

Biological target: endothelial nitric oxide synthase (eNOS) (bovine recombinant baculovirus-expressed in Sf9 cells) (bovine) (UniProt P29473)
Sequence (P29473 whole entry): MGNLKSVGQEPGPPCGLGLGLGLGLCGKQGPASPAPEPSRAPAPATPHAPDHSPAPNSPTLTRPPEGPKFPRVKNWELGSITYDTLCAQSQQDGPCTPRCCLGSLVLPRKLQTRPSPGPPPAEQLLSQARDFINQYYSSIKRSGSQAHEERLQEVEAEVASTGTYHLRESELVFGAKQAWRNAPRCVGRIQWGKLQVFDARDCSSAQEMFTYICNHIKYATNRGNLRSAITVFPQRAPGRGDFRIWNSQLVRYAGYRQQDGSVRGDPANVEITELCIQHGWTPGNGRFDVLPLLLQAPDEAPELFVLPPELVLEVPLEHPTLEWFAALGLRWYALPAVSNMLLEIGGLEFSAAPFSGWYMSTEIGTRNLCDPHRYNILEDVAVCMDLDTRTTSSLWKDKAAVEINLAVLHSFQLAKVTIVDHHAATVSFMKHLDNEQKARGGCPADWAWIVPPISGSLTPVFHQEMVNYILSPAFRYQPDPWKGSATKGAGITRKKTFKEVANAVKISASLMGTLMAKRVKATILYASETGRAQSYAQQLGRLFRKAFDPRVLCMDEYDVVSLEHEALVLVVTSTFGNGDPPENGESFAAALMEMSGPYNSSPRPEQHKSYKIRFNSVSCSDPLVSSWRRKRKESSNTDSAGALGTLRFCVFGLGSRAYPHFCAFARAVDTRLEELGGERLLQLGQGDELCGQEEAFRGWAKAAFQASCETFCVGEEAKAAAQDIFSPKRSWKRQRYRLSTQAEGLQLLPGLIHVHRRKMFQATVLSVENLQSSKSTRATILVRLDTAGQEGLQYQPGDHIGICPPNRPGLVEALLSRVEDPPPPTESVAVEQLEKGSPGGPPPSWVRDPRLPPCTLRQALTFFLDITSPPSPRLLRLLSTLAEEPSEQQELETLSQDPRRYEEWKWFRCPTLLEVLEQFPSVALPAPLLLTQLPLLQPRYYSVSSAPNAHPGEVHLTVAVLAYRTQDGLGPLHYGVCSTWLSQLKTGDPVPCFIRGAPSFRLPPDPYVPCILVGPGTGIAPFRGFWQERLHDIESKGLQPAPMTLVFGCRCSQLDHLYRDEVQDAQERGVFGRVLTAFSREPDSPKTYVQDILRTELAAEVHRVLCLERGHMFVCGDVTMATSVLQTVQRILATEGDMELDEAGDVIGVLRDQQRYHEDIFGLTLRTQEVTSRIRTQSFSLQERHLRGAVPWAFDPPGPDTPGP

## purified bovine brain phospho-(Y)-CaM (phosphorylated by c-Src and free of non-phosphorylated CaM) (from UniProt P62157 1-149) (natural protein)
  increase of eNOS activity by phospho-(Y)-CaM over that by non-phosphorylated CaM, at increasing concentrations of CaM: 30%
